From patent US20230119539A1, “TRACELESS LINKERS AND PROTEIN-CONJUGATES THEREOF” (Regeneron Pharmaceuticals, Inc., priority 2019, published 2023)
Where two headings read alike, the source gives them in different places.

Columns and labels:
[1] = Solubility of quenched linker-payloads; conditions: Table 3c, linker-payloads quenched with taurine-PEG4-azide or CD-N3
GR = target: T1, GR (Homo sapiens, UniProt P04150); assay: GR luciferase reporter assay in HEK293/GRLuc cells; assay type: cell-based
T1 construct: host or cells: HEK293 (HEK293/GRLuc; HEK293/GRLuc/MSR1 additionally transduced with human MSR1)
T1 sequence (P04150 524-758 limits assumed): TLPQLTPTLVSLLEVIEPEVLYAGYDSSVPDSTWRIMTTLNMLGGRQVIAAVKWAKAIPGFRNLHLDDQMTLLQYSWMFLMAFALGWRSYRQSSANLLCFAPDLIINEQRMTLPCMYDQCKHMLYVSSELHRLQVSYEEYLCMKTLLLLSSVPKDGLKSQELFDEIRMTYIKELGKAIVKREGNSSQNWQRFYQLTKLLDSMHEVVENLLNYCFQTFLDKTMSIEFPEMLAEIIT
Method: Activity of anti-MSR1 ncADCs were tested using an MSR1 ADC steroid responsive luciferase reporter assay. To generate the assay cell line, HEK293 cells were co-transfected with the pBind-GR (Promega, Cat #E158A) and pGL4.35 [Luc2P/9xGAL4UAS/Hygro] (Promega, Cat #E137A) vectors. The pBind-GR vector expresses a fusion protein consisting of the GR ligand binding and the yeast Gal4DNA-binding domain, which binds to the Gal4 upstream activation sequence (UAS) in the luciferase expression vector, that can induce luciferase expression following GR agonist binding. The cells were selected for at least 2 weeks in G418+hygromycin and the resulting cell line is referred to as HEK293/GRLuc. HEK293/GRLuc cells were then transduced with a human MSR1 lentiviral expression vector and 48 hours later cells were sorted for MSR1 positive cells. The resulting cell line is referred to as HEK293/GRLuc/MSR1.
Three-fold serial dilutions of ncADCs in assay buffer were added to the cells for 48 hours. The last well in the plate served as blank control containing only the assay media and was plotted as a continuation of the 3-fold serial dilution. Luciferase activity was determined using the One-Glo™ reagent (Promega, Cat #E6130). Relative light units (RLUs) were measured on an Envision luminometer (PerkinElmer) and EC50 values were determined using a four-parameter logistic equation over a 10-point dose response curve (GraphPad Prism). The signal to noise (S/N) was determined by taking the ratio of the highest RLU on the dose response curve to the RLU in the untreated wells.
To test the activity of GR agonist payloads disclosed herein, a cell-based GR responsive luciferase reporter assay was developed as described above.
Three-fold serial dilutions of free payloads were prepared in 100% DMSO, transferred to fresh assay media, and added to the cells for 48 hours. […] The last well in the plate served as blank control containing only the assay media and 0.2% DMSO (untreated well) and was plotted as a continuation of the 3-fold serial dilution. Luciferase activity was determined using the One-Glo™ reagent (Promega, Cat #E6130). Relative light units (RLUs) were measured on an Envision luminometer (PerkinElmer) and EC50 values were determined using a four-parameter logistic equation over a 10-point dose response curve (GraphPad Prism). The signal to noise (S/N) was determined by taking the ratio of the highest RLU on the dose response curve to the RLU in the untreated wells.

[2] = target: T2, human macrophage scavenger receptor 1 (MSR1) (human, UniProt P21757 1-451); assay: cell-based or functional assay
T2 sequence (looked up): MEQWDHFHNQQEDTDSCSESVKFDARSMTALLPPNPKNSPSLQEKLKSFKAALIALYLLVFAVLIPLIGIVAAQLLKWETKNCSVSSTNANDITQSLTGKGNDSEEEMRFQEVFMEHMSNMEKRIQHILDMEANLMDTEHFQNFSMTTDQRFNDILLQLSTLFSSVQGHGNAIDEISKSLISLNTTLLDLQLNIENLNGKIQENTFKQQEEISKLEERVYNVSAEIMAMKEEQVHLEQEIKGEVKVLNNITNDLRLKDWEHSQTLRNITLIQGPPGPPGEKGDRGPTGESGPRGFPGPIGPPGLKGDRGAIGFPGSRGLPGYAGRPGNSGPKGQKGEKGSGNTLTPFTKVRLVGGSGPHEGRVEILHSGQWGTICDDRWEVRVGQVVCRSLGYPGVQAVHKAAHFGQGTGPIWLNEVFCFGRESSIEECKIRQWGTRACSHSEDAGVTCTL

[3] = target: T2, human macrophage scavenger receptor 1 …; assay: cell-based or functional assay; remark: listed apart in the source
[4] = Table 8, ncADCs, highest RLU / RLU of untreated wells

Molecule | Solubility [1] | EC50 (GR; Table 8, ncADCs, 48 hours) | S/N (GR; [4]) | EC50 (GR; Table 11, ADCs) | S/N (GR; Table 11, ADCs) | EC50, GR luciferase reporter activity in HEK293/GRLuc/MSR1 cells [2] | S/N, HEK293/GRLuc/MSR1 cells [2] | EC50, GR luciferase reporter activity in HEK293/GRLuc/MSR1 cells [3] | S/N (highest RLU / RLU in untreated wells), HEK293/GRLuc/MSR1 cells [3]
CCCC1O[C@@H]2C[C@H]3[C@@H]4C[C@H](F)C5=CC(=O)C=C[C@]5(C)[C@@]4(F)[C@@H](O)C[C@]3(C)[C@]2(C(=O)COCNC(=O)CNC(=O)CNC(=O)OCc2ccc(NC(=O)[C@H](CCCNC(N)=O)NC(=O)[C@@H](NC(=O)CCOCCOCCOCCOCCNC(=O)CCC(=O)N3Cc4ccccc4-c4c(nnn4CCOCCOCCOCCOCCC(=O)NCCS(=O)(=O)O)-c4ccccc43)C(C)C)cc2)O1 (stereo partly shown) [Q1L1-PIII-4] | >1000 µg/mL |  |  |  |  |  |  |  | 
H1H21234N-N297Q-L1-PII-1 (antibody, V domains shown, heavy-chain constant region (not part of this entry): N297Q (EU); linker-payload L1-PII-1 (DIBAC-suc-PEG4-vcPAB-PII-1, payload budesonide) clicked onto azido-PEG3-amine on glutamines; DAR 4) VH: QVQLQESGPGLVKPSETLSLTCTVTGGSISRNYWSWIRQPPGKGLEWIGYIYYSGSIDYNPSLKSRVTISVDTSKNQFSLKLSSMTAADTAVYYCARDRWNWKYGMDVWGQGTTVIVSS VL: EIVLTQSPGTLSLSPGERATLSCRASQTVRNNYLAWYHQKPGQAPRLLIYGASSRATGIPDRFSGSGSGTDFTLTISRLEPEDFTVYYCHQYGNSPWTFGQGTKMEIKR |  | > 100 nM | 5.4 | > 100 nM | 4.5 | 0.84 nM | 222 | 0.609 nM | 128
H1H21234N-N297Q-L6-PII-9 (antibody, V domains shown, heavy-chain constant region (not part of this entry): N297Q (EU); linker-payload L6-PII-9 (DIBAC-suc-PEG4-PII-9, payload budesonide) conjugated as in Example 5; four DAR ADC) VH: QVQLQESGPGLVKPSETLSLTCTVTGGSISRNYWSWIRQPPGKGLEWIGYIYYSGSIDYNPSLKSRVTISVDTSKNQFSLKLSSMTAADTAVYYCARDRWNWKYGMDVWGQGTTVIVSS VL: EIVLTQSPGTLSLSPGERATLSCRASQTVRNNYLAWYHQKPGQAPRLLIYGASSRATGIPDRFSGSGSGTDFTLTISRLEPEDFTVYYCHQYGNSPWTFGQGTKMEIKR |  |  |  | > 100 nM | 15.8 | 3.96 nM | 150 |  | 
H1H21234N-N297Q-L13-PII-1 (antibody, V domains shown, heavy-chain constant region (not part of this entry): N297Q (EU); linker-payload L13-PII-1 (COT-GGGG-NHCH2-Bud) conjugated as in Example 5; four DAR ADC) VH: QVQLQESGPGLVKPSETLSLTCTVTGGSISRNYWSWIRQPPGKGLEWIGYIYYSGSIDYNPSLKSRVTISVDTSKNQFSLKLSSMTAADTAVYYCARDRWNWKYGMDVWGQGTTVIVSS VL: EIVLTQSPGTLSLSPGERATLSCRASQTVRNNYLAWYHQKPGQAPRLLIYGASSRATGIPDRFSGSGSGTDFTLTISRLEPEDFTVYYCHQYGNSPWTFGQGTKMEIKR |  |  |  | > 100 nM | 3.1 | 2.33 nM | 226 |  | 
H1H21234N-N297Q-L14-PII-1 (antibody, V domains shown, heavy-chain constant region (not part of this entry): N297Q (EU); linker-payload L14-PII-1 (DIBAC-GGFG-NHCH2-Bud) conjugated as in Example 5; four DAR ADC) VH: QVQLQESGPGLVKPSETLSLTCTVTGGSISRNYWSWIRQPPGKGLEWIGYIYYSGSIDYNPSLKSRVTISVDTSKNQFSLKLSSMTAADTAVYYCARDRWNWKYGMDVWGQGTTVIVSS VL: EIVLTQSPGTLSLSPGERATLSCRASQTVRNNYLAWYHQKPGQAPRLLIYGASSRATGIPDRFSGSGSGTDFTLTISRLEPEDFTVYYCHQYGNSPWTFGQGTKMEIKR |  |  |  | > 100 nM | 16.8 | 0.636 nM | 120 |  | 
H1H21234N-N297Q-L2-PIII-1 (antibody, V domains shown, heavy-chain constant region (not part of this entry): N297Q (EU); linker-payload L2-PIII-1 (DIBAC-suc-PEG4-Glu-vcPAB-PIII-1) clicked onto azido-PEG3-amine on glutamines; DAR 4) VH: QVQLQESGPGLVKPSETLSLTCTVTGGSISRNYWSWIRQPPGKGLEWIGYIYYSGSIDYNPSLKSRVTISVDTSKNQFSLKLSSMTAADTAVYYCARDRWNWKYGMDVWGQGTTVIVSS VL: EIVLTQSPGTLSLSPGERATLSCRASQTVRNNYLAWYHQKPGQAPRLLIYGASSRATGIPDRFSGSGSGTDFTLTISRLEPEDFTVYYCHQYGNSPWTFGQGTKMEIKR |  | 52.7 nM | 6.0 |  |  |  |  | 0.184 nM | 96.4
H1H21234N-N297Q-L5-PIII-1 (antibody, V domains shown, heavy-chain constant region (not part of this entry): N297Q (EU); linker-payload L5-PIII-1 (DIBAC-suc-SGGG-PIII-1) clicked onto azido-PEG3-amine on glutamines; DAR 4) VH: QVQLQESGPGLVKPSETLSLTCTVTGGSISRNYWSWIRQPPGKGLEWIGYIYYSGSIDYNPSLKSRVTISVDTSKNQFSLKLSSMTAADTAVYYCARDRWNWKYGMDVWGQGTTVIVSS VL: EIVLTQSPGTLSLSPGERATLSCRASQTVRNNYLAWYHQKPGQAPRLLIYGASSRATGIPDRFSGSGSGTDFTLTISRLEPEDFTVYYCHQYGNSPWTFGQGTKMEIKR |  | 41.7 nM | 13.2 |  |  |  |  | 0.138 nM | 125
H1H21234N-N297Q-L8-PII-1 (antibody, V domains shown, heavy-chain constant region (not part of this entry): N297Q (EU); linker-payload L8-PII-1 (COT-PEG4-EvcPAB-G-NHCH2-Bud) conjugated as in Example 5; four DAR ADC) VH: QVQLQESGPGLVKPSETLSLTCTVTGGSISRNYWSWIRQPPGKGLEWIGYIYYSGSIDYNPSLKSRVTISVDTSKNQFSLKLSSMTAADTAVYYCARDRWNWKYGMDVWGQGTTVIVSS VL: EIVLTQSPGTLSLSPGERATLSCRASQTVRNNYLAWYHQKPGQAPRLLIYGASSRATGIPDRFSGSGSGTDFTLTISRLEPEDFTVYYCHQYGNSPWTFGQGTKMEIKR |  |  |  | > 100 nM | 1.4 | 0.899 nM | 280 |  | 
H1H21234N-N297Q-L4-PIII-1 (antibody, V domains shown, heavy-chain constant region (not part of this entry): N297Q (EU); linker-payload L4-PIII-1 (DIBAC-suc-GGF-PIII-1) clicked onto azido-PEG3-amine on glutamines; DAR 4) VH: QVQLQESGPGLVKPSETLSLTCTVTGGSISRNYWSWIRQPPGKGLEWIGYIYYSGSIDYNPSLKSRVTISVDTSKNQFSLKLSSMTAADTAVYYCARDRWNWKYGMDVWGQGTTVIVSS VL: EIVLTQSPGTLSLSPGERATLSCRASQTVRNNYLAWYHQKPGQAPRLLIYGASSRATGIPDRFSGSGSGTDFTLTISRLEPEDFTVYYCHQYGNSPWTFGQGTKMEIKR |  | 51.4 nM | 25.5 |  |  |  |  | 0.117 nM | 148
